Laboratory results taken from patent publication US20240148841.

Molecular target: human IgG (of human serum; IgG against AAV8 in AAV8 positive human serum pools CP16 and P1)

B1: IdeSORK (Xork) IgG protease (protein)
chain: LSKRKLLKKIEKKDTSSVLTQKKQTKTLWADGVQVDDKDFKPSTENFGTNYLAAEYGIGKGYYDINKKFDGTDDDLCSGVVAANQLHWWLDRNKDYIEKYRQQSKDNGVTIGNTDIFELNKLHDEDQSNFFDFIKKSFGNKFLQPERLLNMYINGYGYLTSQDKAKTSQPSPSKLNFFQKVFKNNLLTDKTPINDIDEFSSQTKNALQNHKVLAVSFASIKNRGLGHVVTVWGADFDENGKVVALYVTDSDDRSKNIGNAKLGMKKLRIEVSAQDSSTIKLTGFEDKNSGGSLRHLYSLSTGEQIWKKYFEETEKERIRLEEEADKAKLEQDRIQKEAEEKLALEKAEKERIRLEEEADKAKLEQDRIQKEAEEKLALEKAEKERIRLEEEADKAKLEQDRIQKEAEEKLALEKAEKERIRLEEEADKAKLEQDRIQKEAEEKLALEKAEKERIRLEEEAAKAKLEQEKQIATAPQPDKKQENTTSEQEKPAPTELPPLVNKADETETPRETAPDQTPSATNTFRKILPKMNAVSQFFSQLMGTIQIVFAFILKIFK
- cleavage of human IgG in vitro: Xork cleaves human IgG in vitro with the same specificity and mechanism as IdeS
